According to patent publication US20150344570A1 (published 2015):

T1: FcγRIIa R extracellular domain with C-terminal His tag (human, UniProt P12318 34-217)
T1 construct: extracellular domain; Soluble receptor, R131 allotype; also called FcgRIIa R; FcgRIIaR; not shown: His tag at the C terminus
T1 sequence (looked up): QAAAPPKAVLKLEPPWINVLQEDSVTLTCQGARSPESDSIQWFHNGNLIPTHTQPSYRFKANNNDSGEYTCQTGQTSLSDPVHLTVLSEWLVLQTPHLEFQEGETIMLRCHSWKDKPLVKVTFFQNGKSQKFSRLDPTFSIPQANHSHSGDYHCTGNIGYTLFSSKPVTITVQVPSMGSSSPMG

T2: FcγRIIb extracellular domain with C-terminal His tag (human, UniProt P31994 43-217)
T2 construct: extracellular domain; also called FcgRIIb; CD32B; not shown: His tag at the C terminus
T2 sequence (looked up): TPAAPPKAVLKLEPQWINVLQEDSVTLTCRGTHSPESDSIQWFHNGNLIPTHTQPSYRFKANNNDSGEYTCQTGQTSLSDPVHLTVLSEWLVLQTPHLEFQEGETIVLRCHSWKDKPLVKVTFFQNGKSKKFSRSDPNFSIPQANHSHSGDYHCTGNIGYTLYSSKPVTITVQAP

T3: FcγRIIa H extracellular domain with C-terminal His tag (human, UniProt P12318 34-217)
T3 construct: extracellular domain; Soluble receptor, H131 allotype; also called FcgRIIa H; FcgRIIaH; not shown: His tag at the C terminus
T3 sequence (looked up): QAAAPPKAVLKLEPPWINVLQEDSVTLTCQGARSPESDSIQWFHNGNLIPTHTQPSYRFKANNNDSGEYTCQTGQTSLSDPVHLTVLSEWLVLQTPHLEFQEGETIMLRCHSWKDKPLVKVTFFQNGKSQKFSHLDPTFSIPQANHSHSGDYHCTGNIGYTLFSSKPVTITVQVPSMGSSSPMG


Experiments:
Assay in all cases: SPR (Biacore); KD of H240-Kn061/H240-Hl071/L73-k0 divided by KD of the variant
[1] = molecular target: T4, FcγRIIIa F extracellular domain with C-terminal His tag (human, UniProt P08637 17-208)
T4 construct: extracellular domain; Soluble receptor, F158 allotype; also called FcgRIIIa F; FcgRIIIaF; not shown: His tag at the C terminus
T4 sequence (P08637 17-208): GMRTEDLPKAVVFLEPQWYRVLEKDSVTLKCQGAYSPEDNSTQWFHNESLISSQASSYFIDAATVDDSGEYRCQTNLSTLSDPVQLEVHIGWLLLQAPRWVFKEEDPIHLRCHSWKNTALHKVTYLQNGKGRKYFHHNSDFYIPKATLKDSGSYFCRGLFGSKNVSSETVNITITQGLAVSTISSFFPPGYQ

[2] = molecular target: T1, FcγRIIa R extracellular domain with …
[3] = molecular target: T5, FcγRIIIa V extracellular domain with C-terminal His tag (human, UniProt P08637 17-208)
T5 construct: extracellular domain; Soluble receptor, V158 allotype; also called FcgRIIIa V; FcgRIIIaV; not shown: His tag at the C terminus
T5 sequence (P08637 17-208 F176V): as the sequence (P08637 17-208) above, with F160V counted along it

[4] = molecular target: T2, FcγRIIb extracellular domain with …
[5] = molecular target: T3, FcγRIIa H extracellular domain with …

relative KD [1]	relative KD [2]	relative KD [3]	relative KD [4]	relative KD [5]	Binder
1.3	1.2	1.3	0.8	1.2	H240-Kn061/H240-Hl071/L73-k0 variant with F241L introduced into H chain H240-Hl071 (antibody, human IgG1, kappa, Point variant of the heterodimerized anti-epiregulin IgG1 template; also called H240-Hl071 F241L) heavy 1: QDQLVQSGAEVKKPGASVKVSCKASGFNIKDTYIQWVRQAPGQGLEWMGRIDPLRKQTKYREKFEGRVTITADTSTNTAYMELSSLRSEDTAVYYCVRSGREFDYWGQGTLVTVSSASTKGPSVFPLAPSSKSTSGGTAALGCLVKDYFPEPVTVSWNSGALTSGVHTFPAVLQSSGLYSLSSVVTVPSSSLGTQTYICNVNHKPSNTKVDKKVEPKSCDKTHTCPPCPAPEYYWGPSVFLFPPKPKDTLMISRTPEVTCVVVDVSDEDPEVKFNWYVDGVEVHNAKTKPREEQYNATYRVVSVLTVLHQDWLNGKEYKCKVSNKALPAPIEKTISKAKGQPREPQVCTLPPSRDELTKNQVSLWCLVKGFYPSDIAVEWESNGQPENNYKTTPPVLDSDGSFFLYSKLTVDKSRWQQGNVFSCSVMHEALHNHYTQKSLSLSP heavy 2: QDQLVQSGAEVKKPGASVKVSCKASGFNIKDTYIQWVRQAPGQGLEWMGRIDPLRKQTKYREKFEGRVTITADTSTNTAYMELSSLRSEDTAVYYCVRSGREFDYWGQGTLVTVSSASTKGPSVFPLAPSSKSTSGGTAALGCLVKDYFPEPVTVSWNSGALTSGVHTFPAVLQSSGLYSLSSVVTVPSSSLGTQTYICNVNHKPSNTKVDKKVEPKSCDKTHTCPPCPAPELLGGPSVLLFPPKPKDTLMISRTPEVTCVVVDVSHEDPEVKFNWYVDGVEVHNAKTKPREEQYNSTYRVVSVLTVLHQDWLNGKEYKCKVSNDALPMPIEETISKAKGQPREPQVYTLPPSRCELTKNQVSLSCAVKGFYPSDIAVEWESNGQPENNYKTTPPVLDSDGSFFLVSKLTVDKSRWQQGNVFSCSVMHEALHNHYTQKSLSLSP light: DIQMTQSPSSLSASVGDRVTITCRASQDIHKYIAWYQQKPGQAPRLLIQYTSTLQPGVPSRFSGSGSGTDYTFTISSLQPEDIATYYCLQYEQLRTFGGGTKVEIKRTVAAPSVFIFPPSDEQLKSGTASVVCLLNNFYPREAKVQWKVDNALQSGNSQESVTEQDSKDSTYSLSSTLTLSKADYEKHKVYACEVTHQGLSSPVTKSFNRGEC
1.3	1.3	1.3	0.9	1.1	H240-Kn061/H240-Hl071/L73-k0 variant with F241M introduced into H chain H240-Hl071 (antibody, human IgG1, kappa, Point variant of the heterodimerized anti-epiregulin IgG1 template; also called H240-Hl071 F241M) heavy 1: QDQLVQSGAEVKKPGASVKVSCKASGFNIKDTYIQWVRQAPGQGLEWMGRIDPLRKQTKYREKFEGRVTITADTSTNTAYMELSSLRSEDTAVYYCVRSGREFDYWGQGTLVTVSSASTKGPSVFPLAPSSKSTSGGTAALGCLVKDYFPEPVTVSWNSGALTSGVHTFPAVLQSSGLYSLSSVVTVPSSSLGTQTYICNVNHKPSNTKVDKKVEPKSCDKTHTCPPCPAPEYYWGPSVFLFPPKPKDTLMISRTPEVTCVVVDVSDEDPEVKFNWYVDGVEVHNAKTKPREEQYNATYRVVSVLTVLHQDWLNGKEYKCKVSNKALPAPIEKTISKAKGQPREPQVCTLPPSRDELTKNQVSLWCLVKGFYPSDIAVEWESNGQPENNYKTTPPVLDSDGSFFLYSKLTVDKSRWQQGNVFSCSVMHEALHNHYTQKSLSLSP heavy 2: QDQLVQSGAEVKKPGASVKVSCKASGFNIKDTYIQWVRQAPGQGLEWMGRIDPLRKQTKYREKFEGRVTITADTSTNTAYMELSSLRSEDTAVYYCVRSGREFDYWGQGTLVTVSSASTKGPSVFPLAPSSKSTSGGTAALGCLVKDYFPEPVTVSWNSGALTSGVHTFPAVLQSSGLYSLSSVVTVPSSSLGTQTYICNVNHKPSNTKVDKKVEPKSCDKTHTCPPCPAPELLGGPSVMLFPPKPKDTLMISRTPEVTCVVVDVSHEDPEVKFNWYVDGVEVHNAKTKPREEQYNSTYRVVSVLTVLHQDWLNGKEYKCKVSNDALPMPIEETISKAKGQPREPQVYTLPPSRCELTKNQVSLSCAVKGFYPSDIAVEWESNGQPENNYKTTPPVLDSDGSFFLVSKLTVDKSRWQQGNVFSCSVMHEALHNHYTQKSLSLSP light: DIQMTQSPSSLSASVGDRVTITCRASQDIHKYIAWYQQKPGQAPRLLIQYTSTLQPGVPSRFSGSGSGTDYTFTISSLQPEDIATYYCLQYEQLRTFGGGTKVEIKRTVAAPSVFIFPPSDEQLKSGTASVVCLLNNFYPREAKVQWKVDNALQSGNSQESVTEQDSKDSTYSLSSTLTLSKADYEKHKVYACEVTHQGLSSPVTKSFNRGEC

Continued, binder first:

Binder	relative KD [1]	relative KD [2]	relative KD [3]	relative KD [4]	relative KD [5]
H240-Kn061/H240-Hl071/L73-k0 variant with L235F introduced into H chain H240-Hl071 (antibody, human IgG1, kappa, Point variant of the heterodimerized anti-epiregulin IgG1 template; also called H240-Hl071 L235F) heavy 1: QDQLVQSGAEVKKPGASVKVSCKASGFNIKDTYIQWVRQAPGQGLEWMGRIDPLRKQTKYREKFEGRVTITADTSTNTAYMELSSLRSEDTAVYYCVRSGREFDYWGQGTLVTVSSASTKGPSVFPLAPSSKSTSGGTAALGCLVKDYFPEPVTVSWNSGALTSGVHTFPAVLQSSGLYSLSSVVTVPSSSLGTQTYICNVNHKPSNTKVDKKVEPKSCDKTHTCPPCPAPEYYWGPSVFLFPPKPKDTLMISRTPEVTCVVVDVSDEDPEVKFNWYVDGVEVHNAKTKPREEQYNATYRVVSVLTVLHQDWLNGKEYKCKVSNKALPAPIEKTISKAKGQPREPQVCTLPPSRDELTKNQVSLWCLVKGFYPSDIAVEWESNGQPENNYKTTPPVLDSDGSFFLYSKLTVDKSRWQQGNVFSCSVMHEALHNHYTQKSLSLSP heavy 2: QDQLVQSGAEVKKPGASVKVSCKASGFNIKDTYIQWVRQAPGQGLEWMGRIDPLRKQTKYREKFEGRVTITADTSTNTAYMELSSLRSEDTAVYYCVRSGREFDYWGQGTLVTVSSASTKGPSVFPLAPSSKSTSGGTAALGCLVKDYFPEPVTVSWNSGALTSGVHTFPAVLQSSGLYSLSSVVTVPSSSLGTQTYICNVNHKPSNTKVDKKVEPKSCDKTHTCPPCPAPELFGGPSVFLFPPKPKDTLMISRTPEVTCVVVDVSHEDPEVKFNWYVDGVEVHNAKTKPREEQYNSTYRVVSVLTVLHQDWLNGKEYKCKVSNDALPMPIEETISKAKGQPREPQVYTLPPSRCELTKNQVSLSCAVKGFYPSDIAVEWESNGQPENNYKTTPPVLDSDGSFFLVSKLTVDKSRWQQGNVFSCSVMHEALHNHYTQKSLSLSP light: DIQMTQSPSSLSASVGDRVTITCRASQDIHKYIAWYQQKPGQAPRLLIQYTSTLQPGVPSRFSGSGSGTDYTFTISSLQPEDIATYYCLQYEQLRTFGGGTKVEIKRTVAAPSVFIFPPSDEQLKSGTASVVCLLNNFYPREAKVQWKVDNALQSGNSQESVTEQDSKDSTYSLSSTLTLSKADYEKHKVYACEVTHQGLSSPVTKSFNRGEC	1.9	1.2	1.6	1	1.1
H240-Kn061/H240-Hl071/L73-k0 variant with V240A introduced into H chain H240-Hl071 (antibody, human IgG1, kappa, Point variant of the heterodimerized anti-epiregulin IgG1 template; also called H240-Hl071 V240A) heavy 1: QDQLVQSGAEVKKPGASVKVSCKASGFNIKDTYIQWVRQAPGQGLEWMGRIDPLRKQTKYREKFEGRVTITADTSTNTAYMELSSLRSEDTAVYYCVRSGREFDYWGQGTLVTVSSASTKGPSVFPLAPSSKSTSGGTAALGCLVKDYFPEPVTVSWNSGALTSGVHTFPAVLQSSGLYSLSSVVTVPSSSLGTQTYICNVNHKPSNTKVDKKVEPKSCDKTHTCPPCPAPEYYWGPSVFLFPPKPKDTLMISRTPEVTCVVVDVSDEDPEVKFNWYVDGVEVHNAKTKPREEQYNATYRVVSVLTVLHQDWLNGKEYKCKVSNKALPAPIEKTISKAKGQPREPQVCTLPPSRDELTKNQVSLWCLVKGFYPSDIAVEWESNGQPENNYKTTPPVLDSDGSFFLYSKLTVDKSRWQQGNVFSCSVMHEALHNHYTQKSLSLSP heavy 2: QDQLVQSGAEVKKPGASVKVSCKASGFNIKDTYIQWVRQAPGQGLEWMGRIDPLRKQTKYREKFEGRVTITADTSTNTAYMELSSLRSEDTAVYYCVRSGREFDYWGQGTLVTVSSASTKGPSVFPLAPSSKSTSGGTAALGCLVKDYFPEPVTVSWNSGALTSGVHTFPAVLQSSGLYSLSSVVTVPSSSLGTQTYICNVNHKPSNTKVDKKVEPKSCDKTHTCPPCPAPELLGGPSAFLFPPKPKDTLMISRTPEVTCVVVDVSHEDPEVKFNWYVDGVEVHNAKTKPREEQYNSTYRVVSVLTVLHQDWLNGKEYKCKVSNDALPMPIEETISKAKGQPREPQVYTLPPSRCELTKNQVSLSCAVKGFYPSDIAVEWESNGQPENNYKTTPPVLDSDGSFFLVSKLTVDKSRWQQGNVFSCSVMHEALHNHYTQKSLSLSP light: DIQMTQSPSSLSASVGDRVTITCRASQDIHKYIAWYQQKPGQAPRLLIQYTSTLQPGVPSRFSGSGSGTDYTFTISSLQPEDIATYYCLQYEQLRTFGGGTKVEIKRTVAAPSVFIFPPSDEQLKSGTASVVCLLNNFYPREAKVQWKVDNALQSGNSQESVTEQDSKDSTYSLSSTLTLSKADYEKHKVYACEVTHQGLSSPVTKSFNRGEC	1.3	1	1.7	1	1.2
